Sequences and labels used below:
B1: Myc-hFLNc d18–21 wild type (expressed in HEK293 cells) [human] / FILIP1 CT-GFP (expressed in HEK293 cells) [not stated] (parent)
chain 1: LELSKRYSRALRPSVNGRRMVDVPVTSTGVQTDAVSGEAAEEETPAVFIRKSFQEENHIMSNLRQVGLKKPVERSSVLDRYPPAANELTMRKSWIPWMRKRENGPSITQEKGPRTNSSPGHPGEVVLSPKQGQPLHIRVTPDHENSTATLEITSPTSEEFFSSTTVIPTLGNQKPRITIIPSPNVMPQKQKSGDTTLGPERAMSPVTITTFSREKTPESGRGAFADRPTSPIQIMTVSTSAAPAEIAVSPESQEMPMGRTILKVTPEKQTVPTPVRKYNSNANIITTEDNKIHIHLGSQFKRSPGTSGEGVSPVITVRPVNVTAEKEVSTGTVLRSPRNHLSSRPGASKVTSTITITPVTTSSARGTQSVSGQDGSSQRPTPTRIPMSKESIIIHQLRMNSR
chain 2: TGDDSMRTSQLNVGTSTDVSLKITESDLSQLTASIRAPSGNEEPCLLKRLPNRHIGISFTPKEVGEHVVSVRKSGKHVTNSPFKILVGPSEIGDASKVRVWGKGLSEGHTFQVAEFIVDTRNAGYGGLGLSIEGPSKVDINCEDMEDGTCKVTYCPTEPGTYIINIKFADKHVPGSPFTVKVTGEGRMKESITRRRQAPSIATIGSTCDLNLKIPGNWFQMVSAQERLTRTFTRSSHTYTRTERTEISKTRGGETKREVRVEESTQVGGDPFPAVFGDFLGRERLGSFGSITRQQEGEASSQDMTAQVTSPSGKVEAAEIVEGEDSAYSVRFVPQEMGPHTVAVKYRGQHVPGSPFQFTVGPLGEGGAHKVRAGGTGLERGVAGVPAEFSIWTREAGAGGLSIAVEGPSKAEIAFEDRKDGSCGVSYVVQEPGDYEVSIKFNDEHIPDSPFVVPVASLSDDARR
B2: Myc-tagged FLNc d18–21 WT (expressed in C2 cells) [human] / FILIP1 CT-GFP (expressed in C2 cells) [not stated] (parent)
chain 1: MRSRNQGGESASDGHISCPKPSIIGNAGEKSLSEDAKKKKKSNRKEDDVMASGTVKRHLKTSGECERKTKKSLELSKEDLIQLLSIMEGELQAREDVIHMLKTEKTKPEVLEAHYGSAEPEKVLRVLHRDAILAQEKSIGEDVYEKPISELDRLEEKQKETYRRMLEQLLLAEKCHRRTVYELENEKHKHTDYMNKSDDFTNLLEQERERLKKLLEQEKAYQARKEKENAKRLNKLRDELVKLKSFALMLVDERQMHIEQLGLQSQKVQDLTQKLREEEEKLKAITSKSKEDRQKLLKLEVDFEHKASRFSQEHEEMNAKLANQESHNRQLRLKLVGLTQRIEELEETNKNLQKAEEELQELRDKIAKGECGNSSLMAEVENLRKRVLEMEGKDEEITKTESQCRELRKKLQEEEHHSKELRLEVEKLQKRMSELEKLEEAFSKSKSECTQLHLNLEKEKNLTKDLLNELEVVKSRVKELECSESRLEKAELSLKDDLTKLKSFTVMLVDERKNMMEKIKQEERKVDGLNKNFKVEQGKVMDVTEKLIEESKKLLKLKSEMEEKVYNLTRERDELIGKLKSEEEKSSELSCSVDLLKKRLDGIEEVEREITRGRSRKGSELTCPEDNKIKELTLEIERLKKRLQQLEVVEGDLMKTEDEYDQLEQKFRTEQDKANFLSQQLEEIKHQIAKNKAIEKGEVVSQEAELRHRFRLEEAKSRDLKAEVQALKEKIHELMNKEDQLSQLQVDYSVLQQRFMEEENKNKNMGQEVLNLTKELELSKRYSRALRPSVNGRRMVDVPVTSTGVQTDAVSGEAAEEETPAVFIRKSFQEENHIMSNLRQVGLKKPVERSSVLDRYPPAANELTMRKSWIPWMRKRENGPSITQEKGPRTNSSPGHPGEVVLSPKQGQPLHIRVTPDHENSTATLEITSPTSEEFFSSTTVIPTLGNQKPRITIIPSPNVMPQKQKSGDTTLGPERAMSPVTITTFSREKTPESGRGAFADRPTSPIQIMTVSTSAAPAEIAVSPESQEMPMGRTILKVTPEKQTVPTPVRKYNSNANIITTEDNKIHIHLGSQFKRSPGTSGEGVSPVITVRPVNVTAEKEVSTGTVLRSPRNHLSSRPGASKVTSTITITPVTTSSARGTQSVSGQDGSSQRPTPTRIPMSKGMKAGKPVVAAPGAGNLTKFEPRAETQSMKIELKKSAASSTTSLGGGKG
chain 2: B1 chain 2

Here are results for eight variants from article PMC7244511, “Phosphoproteomics identifies dual-site phosphorylation in an extended basophilic motif regulating FILIP1-mediated degradation of filamin-C” (Communications Biology, 2020).

One experiment covers variants of B1. Description: co-immunoprecipitation (anti-Myc) with quantitative immunoblot. Particulars: HEK293 cells transiently expressing FILIP1 CT-GFP and Myc-hFLNc d18–21, n = 3–6, read off a plot.
chain 2 TGDDSMRTSQLNVGTSTDVSLKITESDLSQLTASIRAPSGNEEPCLLKRLPNRHIGISFTPKEVGEHVVSVRKSGKHVTNSPFKILVGPSEIGDASKVRVWGKGLSEGHTFQVAEFIVDTRNAGYGGLGLSIEGPSKVDINCEDMEDGTCKVTYCPTEPGTYIINIKFADKHVPGSPFTVKVTGEGRMKESITRRRQAPSIATIGSTCDLNLKIPGNWFQMVSAQERLTRTFTRSSHTYTRTERTEISKTRGGETKREVRVEESTQVGGDPFPAVFGDFLGRERLGDFGDITRQQEGEASSQDMTAQVTSPSGKVEAAEIVEGEDSAYSVRFVPQEMGPHTVAVKYRGQHVPGSPFQFTVGPLGEGGAHKVRAGGTGLERGVAGVPAEFSIWTREAGAGGLSIAVEGPSKAEIAFEDRKDGSCGVSYVVQEPGDYEVSIKFNDEHIPDSPFVVPVASLSDDARR [chain 2 S287D S290D]: the ratio to parent was determined as 0.82.
With chain 2 TGDDSMRTSQLNVGTSTDVSLKITESDLSQLTASIRAPSGNEEPCLLKRLPNRHIGISFTPKEVGEHVVSVRKSGKHVTNSPFKILVGPSEIGDASKVRVWGKGLSEGHTFQVAEFIVDTRNAGYGGLGLSIEGPSKVDINCEDMEDGTCKVTYCPTEPGTYIINIKFADKHVPGSPFTVKVTGEGRMKESITRRRQAPSIATIGSTCDLNLKIPGNWFQMVSAQERLTRTFTRSSHTYTRTERTEISKTRGGETKREVRVEESTQVGGDPFPAVFGDFLGRERLGSFGDITRQQEGEASSQDMTAQVTSPSGKVEAAEIVEGEDSAYSVRFVPQEMGPHTVAVKYRGQHVPGSPFQFTVGPLGEGGAHKVRAGGTGLERGVAGVPAEFSIWTREAGAGGLSIAVEGPSKAEIAFEDRKDGSCGVSYVVQEPGDYEVSIKFNDEHIPDSPFVVPVASLSDDARR [chain 2 S290D], the ratio to parent came to 1.
For chain 2 TGDDSMRTSQLNVGTSTDVSLKITESDLSQLTASIRAPSGNEEPCLLKRLPNRHIGISFTPKEVGEHVVSVRKSGKHVTNSPFKILVGPSEIGDASKVRVWGKGLSEGHTFQVAEFIVDTRNAGYGGLGLSIEGPSKVDINCEDMEDGTCKVTYCPTEPGTYIINIKFADKHVPGSPFTVKVTGEGRMKESITRRRQAPSIATIGSTCDLNLKIPGNWFQMVSAQERLTRTFTRSSHTYTRTERTEISKTRGGETKREVRVEESTQVGGDPFPAVFGDFLGRERLGSFGAITRQQEGEASSQDMTAQVTSPSGKVEAAEIVEGEDSAYSVRFVPQEMGPHTVAVKYRGQHVPGSPFQFTVGPLGEGGAHKVRAGGTGLERGVAGVPAEFSIWTREAGAGGLSIAVEGPSKAEIAFEDRKDGSCGVSYVVQEPGDYEVSIKFNDEHIPDSPFVVPVASLSDDARR [chain 2 S290A], the ratio to parent was 1.
On the same count and under the same terms, to chain 2 TGDDSMRTSQLNVGTSTDVSLKITESDLSQLTASIRAPSGNEEPCLLKRLPNRHIGISFTPKEVGEHVVSVRKSGKHVTNSPFKILVGPSEIGDASKVRVWGKGLSEGHTFQVAEFIVDTRNAGYGGLGLSIEGPSKVDINCEDMEDGTCKVTYCPTEPGTYIINIKFADKHVPGSPFTVKVTGEGRMKESITRRRQAPSIATIGSTCDLNLKIPGNWFQMVSAQERLTRTFTRSSHTYTRTERTEISKTRGGETKREVRVEESTQVGGDPFPAVFGDFLGRERLGAFGAITRQQEGEASSQDMTAQVTSPSGKVEAAEIVEGEDSAYSVRFVPQEMGPHTVAVKYRGQHVPGSPFQFTVGPLGEGGAHKVRAGGTGLERGVAGVPAEFSIWTREAGAGGLSIAVEGPSKAEIAFEDRKDGSCGVSYVVQEPGDYEVSIKFNDEHIPDSPFVVPVASLSDDARR [chain 2 S287A S290A] belongs 2.1; to chain 2 TGDDSMRTSQLNVGTSTDVSLKITESDLSQLTASIRAPSGNEEPCLLKRLPNRHIGISFTPKEVGEHVVSVRKSGKHVTNSPFKILVGPSEIGDASKVRVWGKGLSEGHTFQVAEFIVDTRNAGYGGLGLSIEGPSKVDINCEDMEDGTCKVTYCPTEPGTYIINIKFADKHVPGSPFTVKVTGEGRMKESITRRRQAPSIATIGSTCDLNLKIPGNWFQMVSAQERLTRTFTRSSHTYTRTERTEISKTRGGETKREVRVEESTQVGGDPFPAVFGDFLGRERLGDFGSITRQQEGEASSQDMTAQVTSPSGKVEAAEIVEGEDSAYSVRFVPQEMGPHTVAVKYRGQHVPGSPFQFTVGPLGEGGAHKVRAGGTGLERGVAGVPAEFSIWTREAGAGGLSIAVEGPSKAEIAFEDRKDGSCGVSYVVQEPGDYEVSIKFNDEHIPDSPFVVPVASLSDDARR [chain 2 S287D], 1.
Turning to chain 2 TGDDSMRTSQLNVGTSTDVSLKITESDLSQLTASIRAPSGNEEPCLLKRLPNRHIGISFTPKEVGEHVVSVRKSGKHVTNSPFKILVGPSEIGDASKVRVWGKGLSEGHTFQVAEFIVDTRNAGYGGLGLSIEGPSKVDINCEDMEDGTCKVTYCPTEPGTYIINIKFADKHVPGSPFTVKVTGEGRMKESITRRRQAPSIATIGSTCDLNLKIPGNWFQMVSAQERLTRTFTRSSHTYTRTERTEISKTRGGETKREVRVEESTQVGGDPFPAVFGDFLGRERLGAFGSITRQQEGEASSQDMTAQVTSPSGKVEAAEIVEGEDSAYSVRFVPQEMGPHTVAVKYRGQHVPGSPFQFTVGPLGEGGAHKVRAGGTGLERGVAGVPAEFSIWTREAGAGGLSIAVEGPSKAEIAFEDRKDGSCGVSYVVQEPGDYEVSIKFNDEHIPDSPFVVPVASLSDDARR [chain 2 S287A], the ratio to parent worked out at 1.4.

In another experiment the parent is B2. The experiment is described as above. The conditions noted are these: C2 cells transiently expressing FILIP1 CT-GFP and Myc-hFLNc d18–21, n = 3, read off a plot.
In the case of chain 2 TGDDSMRTSQLNVGTSTDVSLKITESDLSQLTASIRAPSGNEEPCLLKRLPNRHIGISFTPKEVGEHVVSVRKSGKHVTNSPFKILVGPSEIGDASKVRVWGKGLSEGHTFQVAEFIVDTRNAGYGGLGLSIEGPSKVDINCEDMEDGTCKVTYCPTEPGTYIINIKFADKHVPGSPFTVKVTGEGRMKESITRRRQAPSIATIGSTCDLNLKIPGNWFQMVSAQERLTRTFTRSSHTYTRTERTEISKTRGGETKREVRVEESTQVGGDPFPAVFGDFLGRERLGAFGAITRQQEGEASSQDMTAQVTSPSGKVEAAEIVEGEDSAYSVRFVPQEMGPHTVAVKYRGQHVPGSPFQFTVGPLGEGGAHKVRAGGTGLERGVAGVPAEFSIWTREAGAGGLSIAVEGPSKAEIAFEDRKDGSCGVSYVVQEPGDYEVSIKFNDEHIPDSPFVVPVASLSDDARR [chain 2 S287A S290A], the ratio to parent was 1.8.
As to chain 2 TGDDSMRTSQLNVGTSTDVSLKITESDLSQLTASIRAPSGNEEPCLLKRLPNRHIGISFTPKEVGEHVVSVRKSGKHVTNSPFKILVGPSEIGDASKVRVWGKGLSEGHTFQVAEFIVDTRNAGYGGLGLSIEGPSKVDINCEDMEDGTCKVTYCPTEPGTYIINIKFADKHVPGSPFTVKVTGEGRMKESITRRRQAPSIATIGSTCDLNLKIPGNWFQMVSAQERLTRTFTRSSHTYTRTERTEISKTRGGETKREVRVEESTQVGGDPFPAVFGDFLGRERLGDFGDITRQQEGEASSQDMTAQVTSPSGKVEAAEIVEGEDSAYSVRFVPQEMGPHTVAVKYRGQHVPGSPFQFTVGPLGEGGAHKVRAGGTGLERGVAGVPAEFSIWTREAGAGGLSIAVEGPSKAEIAFEDRKDGSCGVSYVVQEPGDYEVSIKFNDEHIPDSPFVVPVASLSDDARR [chain 2 S287D S290D], the ratio to parent is 0.82.
